# Assay results from patent US20050239730A1, “Plasmodium falciparum erythrocyte binding protein baebl for use as a vaccine” (priority 2001, published 2005).
# Assays:
# [1] = target: Gerbich human erythrocytes (exon 3 deletion of glycophorin C/D: shortened glycophorin C, absent glycophorin D); experiment: region II on COS cells, erythrocyte-binding assay
# [2] = target: normal human erythrocytes (untreated); experiment: region II on COS cells, erythrocyte-binding assay
# [3] = target: trypsin-treated human erythrocytes; experiment: region II on COS cells, erythrocyte-binding assay
# [4] = target: neuraminidase-treated normal human erythrocytes; experiment: region II on COS cells, erythrocyte-binding assay
# [5] = test system: binding of BAEBL to human erythrocytes; experiment: Competitive inhibition assay; settings: 1 μM, 10 μM, 100 μM, and 1000 μM; preincubated 1 hr at room temperature
# Description: To determine the specificity of binding, we studied binding to neuraminidase-and trypsin-treated human erythrocytes and human erythrocytes with various genetically modified blood groups. […] To determine whether BAEBL was binding to the carbohydrates on the erythrocyte receptor, we performed competitive inhibition with Neu5Ac(α2-3) lactosialic and Neu5Ac(α2-6)lactosialic acid at 1 μM, 10 μM, 100 μM, and 1000 μM.
# An inhibition assay was conducted in the presence of Neu5Ac(α2-3) lactosialic acid or Neu5Ac(α2-6) lactosialic acid (Sigma). Metabolically labeled parasite supernatant (50 μl) was preincubated with 1, 10, 100, or 1000 μM in 15 μl of the aforementioned carbohydrates for 1 hr at room temperature. Packed erythrocytes (50 μl) were added to the mixture. The erythrocyte binding assay was conducted as described above. Immunolocalization of BAEBL.
Compound,"percentage of binding to normal, untreated RBC [1] [%]","COS cells with five or more attached RBC, total per coverslip (COS cells per coverslip) [2]","percentage of binding to normal, untreated RBC [3] [%]","percentage of binding to normal, untreated RBC [4] [%]",Inhibition of the binding of BAEBL to human erythrocytes [5]
"BAEBL region II variant ISKK, expressed on the surface of COS cells (ligand)",96,59,92,–,–
"BAEBL region II variant VSKK, expressed on the surface of COS cells (ligand)",112,58,–,90,–
"BAEBL region II variant INRE, expressed on the surface of COS cells (ligand)",100,67,114,110,–
CC(=O)NC1C(O)CC(OC2C(O)C(CO)OC(OC3C(CO)OC(O)C(O)C3O)C2O)(C(=O)O)OC1C(O)C(O)CO (stereo not drawn) [Neu5Ac(α2-3) lactosialic acid],–,–,–,–,neither Neu5Ac(α2-3) nor Neu5Ac(α2-6) lactosialic acid inhibited the binding
CC(=O)NC1C(O)CC(OCC2OC(OC3C(CO)OC(O)C(O)C3O)C(O)C(O)C2O)(C(=O)O)OC1C(O)C(O)CO (stereo not drawn) [Neu5Ac(α2-6) lactosialic acid],–,–,–,–,neither Neu5Ac(α2-3) nor Neu5Ac(α2-6) lactosialic acid inhibited the binding
